In one series the test system is C57Bl/6 mice. In words: ADA response to adalimumab-anti-mouse CD22 scFv fusion protein in mice (Example 15). The class given is in vivo. The following applies: after a single 4 mg/kg dose. The source says: To evaluate the production of antibodies specific to adalimumab and/or adalimumab-anti-mouse CD22 scFv fusion protein, 8 week old female C57BL/6 mice (n=5 per group) were immunized through intravenous injection with adalimumab or adalimumab-anti-mouse CD22 scFv fusion protein. On study day −1, animals were randomized into treatment groups based on body weight. On study day 0, animals were bled for baseline serum and then injected IV with adalimumab or adalimumab-anti-mouse CD22 scFv fusion protein. Animals were dosed […] with 4 mg/kg of adalimumab or adalimumab-anti-mouse CD22 scFv fusion protein. Animals were bled via the retro-orbital sinus weekly throughout the study under inhaled isoflurane anesthesia. On study day, 28 animals were anesthetized with inhaled isoflurane anesthesia and then bled via cardiac puncture and then sacrificed by cervical dislocation. […]
ADA assays were performed on 96-well assay plates (Nunc Plates, Black 96-Well Immuno Plates, Thermo Scientific, 437111) coated with antigen, as follows. […] The excitation and emission settings for the QuantaBlu Fluorogenic Peroxide Substrates are 325 nm and 420 nm and the relative florescence units were measured using a SpectraMax plate reader. […] Titers were determined by the dilution of serum that gives a 2× OD above background.

Another series concerns C57BL6 mice. Nature of the series: anti-antigen antibody production in C57BL6 mice pre-dosed with adalimumab (Example 5). The class given is in vivo, mouse. The following applies: one to four weekly 4 mg/kg s.c. doses (groups A to D); serum day 27. An excerpt:
To evaluate the production of antibodies specific to adalimumab-SigL conjugates after pre-dosing with adalimumab, C57BL6 mice were immunized with adalimumab one, two, three, or four times (groups A to D), or once with adalimumab followed by two doses of adalimumab-SigL (Group E) (FIG. 5). Conjugates bear BPC-Neu5Gc-based Siglec Ligand-Linker structures with affinity for Siglec-2. On study day −1, animals were randomized into treatment groups based on body weight. On study day 0, animals were bled for baseline serum and then injected subcutaneously (s.q.) with adalimumab, SigL-conjugated adalimumab antibody, or PBS, once every seven days for a total of four injections over twenty-eight days. The individual antigens were prepared by making a 0.8 mg/ml antigen solution in sterile buffered saline. Animals were then injected with 0.1 ml (˜4 ml/kg) of the 0.8 mg/ml antigen on the rear flanks. […]
Anti-drug antibody (ADA) response assays were performed on 96-well assay plates (Nunc Plates, Black 96-Well Immuno Plates, Thermo Scientific, 437111) coated with antigen, as follows. […] The excitation and emission settings for the QuantaBlu Fluorogenic Peroxide Substrates are 325 nm and 420 nm and the relative florescence units were measured using a SpectraMax plate reader. […] Titers were determined by the dilution of serum that gives a 2× OD above background.

adalimumab: in the series on C57Bl/6 mice, the “immunogenicity in mice (immunoglobulin response)” value was “highly immunogenic”. Besides, the anti-adalimumab titers result with C57BL6 mice is on record as “progressively stronger anti-adalimumab titers”.

Source of the values: patent US20240216490A1, “Autoantigens Engineered to Suppress Autoimmune Response” (Osprey Biopharmaceuticals, Inc., priority 2022, published 2024).
